Data set [1] has as its system human embryonic stem cells. The experiment in a line: Notch signaling inhibition, C-peptide positive cells by immunohistochemistry. The class given is cell-based. As to conditions: added day 9-18 of differentiation; cells fixed at day 21; FIG. 7. The procedure: In order to increase the percentage of Pdx-1 and C-peptide producing cells, the cells from Example 1 were rinsed twice with PBS and then cultured in a culture medium (2% 8-27, 1×Glutamax, 1×NEAA, 1×13-mercaptoethanol in RPMI 1640 (RPMI)) comprising 50 ng/ml Activin A and 50 ng/ml BMP4 for 3 days. The medium was then changed to a medium comprising 50 ng/ml Activin A in RPMI and incubated for 3 days. The cells were then cultured in a medium comprising 3 μM RA, 50 ng/ml FGF2, 1 μM SANT-1 and 10 mM Nicotinamide in RPMI for 6 days with the medium changed every 2-3 days. Notch signaling in the cells was then inhibited by the addition of Gamma Secretase Inhibitor X (DAPT) from day 9-18 of differentiation.
Plate-based immunohistochemistry was performed using standard techniques. Cells were fixed in 4% PFA in PBS for 30 min, washed with PBS and incubated in blocking solution consisting of 10% FCS and 0.1% Triton X-100 in PBS for 1 hr. Cells were incubated overnight at 4 ° C. with the primary antibody diluted in blocking solution. Examples of primary antibodies and their dilutions used include: guinea pig anti-Pdx-1 (1:10,000), rabbit anti-C-peptide (Linea, 1:1,000), goat anti-Sox17 (R & D systems, 1:100), goat anti-FoxA2 (R & D systems 1:100) and mouse anti-Oct4 (Santacruz, 1:100). […]

The conditions of data set [2]: cited from earlier work.
Data set [3] deals with ESI035, ESI049, ESI051 and HES-3. The experiment in a line: Effect of early growth factors, Pdx-1 RT-PCR. The class given is cell-based, human. As to conditions: day 18; early factors per Table 2; compared to cells only treated with Activin A; FIG. 5. The source says:
The effect of early differentiation factors was examined by differentiating cell lines ESI035, ESI049, ESI051 and HES-3 in 24-well plates in six varying cultures and harvesting them for analysis using immunohistochemistry and Quantitative RT-PCR analysis on day 18 and day 30 of differentiation. The culture medium (1×Glutamax, 1×NEAA, 1×13-mercaptoethanol in RPMI 1640 (RPMI)) was supplemented with other factors summarized in table 2 below. The medium was changed every 2-3 days.
As the effect of FGF2 as an early growth factor varied depending on the cell line used, no conclusion was derived with regard to the effect of an early dose of FGF2 on the expression of Pdx-1.
Total RNA from hESC at various stages of differentiation was isolated using the Qiagen RNeasy kit […] according to the manufacturer's instructions. RNA was quantified by UV absorption. 1 to 5 μg of RNA was DNase I treated and converted to cDNA using M-MuIV reverse transcriptase (New England Biolabs) using random hexamer primers according to the manufacturer's instructions. Quantitative PCR (RT-PCR) was performed according to the manufacturer's instructions using a BioRad iCycler with approximately 50 ng cDNA per reaction containing 250 nM of each primer and 1×SYBR green master mix (Bio-Rad) and analyzed by Bio-RAD thermocycler.

The test system of data set [4] is mix of cell lines, ESI017 and ESI035. Briefly: Definitive endoderm time course, real-time PCR of Sox17 and FoxA2. The class given is cell-based, human. The procedure: The effects of Activin A with and without BMP4 on the expression of markers of definitive endoderm were examined. Activin A and BMP4 were added to a mix of cell lines, ESI017 and ESI035, of Example 1 after the cells had been washed twice with PBS. Four groups of cells were then cultured in four different conditions:
1) 50 ng/ml Activin A and 50 ng/ml BMP4 in a culture medium (2% B-27, 1×Glutamax, 1×NEAA, 1×J3-mercaptoethanol in RPMI 1640 (RPMI)) for 3 days followed by treatment with Activin A (50 ng/ml) in RPMI.
2) 50 ng/ml Activin A and 50 ng/ml BMP4 in RPMI for about 6 hours followed by treatment with Activin A (50 ng/ml) in RPMI.
3) 50 ng/ml Activin A in RPMI.
4) 10% KOSR in RPMI (negative control).
The cells were cultured continuously and a sample harvested daily. The medium was changed every 2-3 days. Real-time PCR was performed as described in Example 9.
Total RNA from hESC at various stages of differentiation was isolated using the Qiagen RNeasy kit […] according to the manufacturer's instructions. RNA was quantified by UV absorption. […] Quantitative PCR (RT-PCR) was performed according to the manufacturer's instructions using a BioRad iCycler with approximately 50 ng cDNA per reaction containing 250 nM of each primer and 1×SYBR green master mix (Bio-Rad) and analyzed by Bio-RAD thermocycler.
A general note: Real-time PCR tracks product formation cycle by cycle.

The subject of data set [5] is ESI035, ESI049 and ESI051. Briefly: Screen of maturation growth factors, immunohistochemistry for C-peptide and Pdx-1. The class given is cell-based, human. As to conditions: day 18. An excerpt: The effect of maturation growth factors was examined by differentiating cell lines ESI035, ESI049 and ES1051 from Example 1 in 96-well plates in two varying cultures and harvesting them for analysis using immunohistochemistry on day 18 of differentiation. The culture medium (1×Glutamax, 1×NEAA, 1×f3-mercaptoethanol in RPMI 1640 (RPMI)) were supplemented with other factors summarized in Table 4 below. The notable changes to the differentiation protocol used here compared to that used in Example 4 were the shortened period of endoderm induction and the addition of nicotinamide from day 6 of differentiation. The medium was changed every 2-3 days. A list of growth factors (G.F) were tested according to the protocol described in Table 4. […] There were added at two time points. […] None of the added growth factors had any consistent effect on cell viability, C-peptide expression and Pdx-1 expression. Plate-based immunohistochemistry was performed using standard techniques. Cells were fixed in 4% PFA in PBS for 30 min, washed with PBS and incubated in blocking solution consisting of 10% FCS and 0.1% Triton X-100 in PBS for 1 hr. Cells were incubated overnight at 4 ° C. with the primary antibody diluted in blocking solution. […]

For `CC(C)C[C@H](NC(=O)[C@H](Cc1ccccc1)C[C@@H](O)[C@H](Cc1ccccc1)NC(=O)OC(C)(C)C)C(=O)N[C@@H](Cc1ccccc1)C(N)=O` [Gamma Secretase Inhibitor X], the “Concentration resulting in a significant number of C-peptide positive cells” value in data set [1] was “over 10 μM”. Regarding C-peptide, the half-life result in data set [2] was “about 30 minutes”. For FGF2: member of the FGF family, the “Pdx-1 expression (RT-PCR)” value in data set [3] is listed as “did not result in the same effect on Pdx-1 expression in all four cell lines”.

B1: BMP4: secreted polypeptide belonging to the BMP subgroup of the TGF-superfamily (protein, UniProt P12644 293-408, looked up)
Bone morphogenetic protein 4: SPKHHSQRARKKNKNCRRHSLYVDFSDVGWNDWIVAPPGYQAFYCHGDCPFPLADHLNSTNHAIVQTLVNSVNSSIPKACCVPTELSAISMLYLDEYDKVVLKNYQEMVVEGCGCR
For B1, in data set [4] (addition of 50 ng/ml BMP4 to Activin A, up to day 10, FIG. 2B), the FoxA2 expression result was “did not appear to greatly affect FoxA2 expression”. In data set [5] (BMP4 treated plates compared to plates not BMP4 treated), the Pdx-1 positive cells result was “more Pdx-1 positive cells”. The “frequency of C-peptide positive cells” value in data set [5] (initially cultured in medium comprising BMP4 vs Activin only) is recorded as “higher frequency of C-peptide positive cells”.

B2: Activin A: protein of the TGF-superfamily (protein, UniProt P08476 311-426, looked up)
Inhibin beta A chain: GLECDGKVNICCKKQFFVSFKDIGWNDWIIAPSGYHANYCEGECPSHIAGTSGSSLSFHSTVINHYRMRGHSPFANLKSCCVPTKLRPMSMLYYDDGQNIIKKDIQNMIVEECGCS
modifications: Inhibin beta A chain
notes: protein of the TGF-superfamily
In the case of B2, in data set [4] (50 ng/ml each in RPMI, daily samples, FIG. 2A), the “expression of Sox17 mRNA” value is reported as “weak expression of Sox17 until day 6”.

Values taken from US20180155693A1, “Method of Differentiating Stem Cells” (BioTime, Inc., priority 2008, published 2018).
